According to article doi:10.1101/2020.08.19.257725 (bioRxiv, 2020):
Each block holds one binder with its values, some of them ahead of it.

Assays:
[1] = target: T1, Human serum albumin (Homo sapiens, UniProt P02768); experiment: SPR
[2] = target: T2, mouse albumin (Mus musculus, UniProt P07724); experiment: ELISA
[3] = target: T1, Human serum albumin; experiment: pull-down
[4] = target: T2, mouse albumin; experiment: pull-down
[5] = target: cynomolgus monkey albumin (Macaca fascicularis, UniProt A2V9Z4); experiment: pull-down
Chain of cynomolgus monkey albumin (A2V9Z4 25-608): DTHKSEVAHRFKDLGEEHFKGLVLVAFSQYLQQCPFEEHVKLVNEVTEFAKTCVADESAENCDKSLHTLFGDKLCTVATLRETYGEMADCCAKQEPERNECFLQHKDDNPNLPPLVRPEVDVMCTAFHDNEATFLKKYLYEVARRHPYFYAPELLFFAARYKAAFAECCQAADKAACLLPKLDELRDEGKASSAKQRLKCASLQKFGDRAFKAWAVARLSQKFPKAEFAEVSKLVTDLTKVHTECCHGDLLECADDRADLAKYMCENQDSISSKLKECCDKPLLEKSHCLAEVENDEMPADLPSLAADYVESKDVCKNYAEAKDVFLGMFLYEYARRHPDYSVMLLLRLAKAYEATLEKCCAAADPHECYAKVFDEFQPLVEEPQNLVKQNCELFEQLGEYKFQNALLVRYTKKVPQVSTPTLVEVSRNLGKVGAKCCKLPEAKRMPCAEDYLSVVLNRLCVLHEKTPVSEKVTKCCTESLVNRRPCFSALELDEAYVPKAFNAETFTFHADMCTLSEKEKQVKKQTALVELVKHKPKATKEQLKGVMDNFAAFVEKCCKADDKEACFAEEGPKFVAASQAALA

T2 sequence (P07724 25-608): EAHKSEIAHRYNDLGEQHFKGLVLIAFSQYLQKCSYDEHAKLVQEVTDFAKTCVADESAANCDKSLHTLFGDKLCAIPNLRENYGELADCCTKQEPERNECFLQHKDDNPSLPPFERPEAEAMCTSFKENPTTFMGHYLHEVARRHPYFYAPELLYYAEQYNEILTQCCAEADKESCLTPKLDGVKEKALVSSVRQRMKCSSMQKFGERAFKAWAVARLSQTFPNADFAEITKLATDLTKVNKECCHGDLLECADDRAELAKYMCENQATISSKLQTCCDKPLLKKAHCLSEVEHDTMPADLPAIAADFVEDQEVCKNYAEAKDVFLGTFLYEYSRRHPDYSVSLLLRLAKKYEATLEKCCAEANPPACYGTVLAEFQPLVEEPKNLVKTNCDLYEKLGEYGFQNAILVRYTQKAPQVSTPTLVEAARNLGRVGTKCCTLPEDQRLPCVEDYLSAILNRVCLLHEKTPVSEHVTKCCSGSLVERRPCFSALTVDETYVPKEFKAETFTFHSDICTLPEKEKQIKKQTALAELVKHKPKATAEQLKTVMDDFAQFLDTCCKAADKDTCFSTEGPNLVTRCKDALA

B1: Nb126 (VHH)
VHH: QVQLVESGGGLVQAGGSLRLSCAASGLTFSNYVMGWFRQAPGKEREFVAYIHWSGGRILYADSVKGRFTISRDNTKNTMYLQMNSLKPDDTAVYYCTADQYATTVLRAAGEYWGQGTQVTVSE
Kd [1]: 0.251 nM

B2: Nb80 (VHH)
VHH: EVQLVESGGGLVQAGGSLRLSCTASGRTFTPYTMGWFRQAPGKEREFVASILWSGNNRDYADSVKGRFAISRDNAKNTAYLQMTSLKPEDTAVYYCAAGDGLGFYRSVNQYDYWGQGTQVTVS
binding result [2]: binds
Kd [1]: 0.166 nM

B5: Nb13 (VHH)
VHH: HVQLVESGGELVQAGGSLRLSCAASGRTFSNYAMGWFRQAPGTEREFVAAISRSGGSTYYADSVKGRFIISRDNAKNTVWLQMNMLKPEDTSVYYCAAAEGLASGSYDYAPPLKSSWYDYWGQGTQVTVSE
Kd [1]: 0.201 nM

Next, values leading:

binding result [3]: binds
binding result [4]: binds
binding result [5]: binds
B3: Nb132 (VHH)
VHH: HVQLVESGGGLVQAGGSLRLSCAASGGTISNYGMGWLRQGPGKEREFVGSINWNGATTHYADSVKGRFIISRDNAKNTVYLQMNSLKPEDTGVYYCVAQFSVQPTLRTYDYGGQGTQVTVSE

binding result [2]: binds
B4: Nb77 (VHH)
VHH: QVQLVESGGGLVQAGGSLRLSCTASGRTYEPLVMGWFRQAPGKEREFVATITPSGGSLSYADSVKGRFTVSRDNAKKTVYLQMNRLQPEDTAVYYCAAAPGVGNYRYTRQYDYWGQGTQVTVSE
